Reference: PMC4407828 (Nature communications, 2015)

Target: GST-Tip60 (UniProt Q92993 1-513)
Assay: pull-down

GST-Tip60, sequence (Q92993 whole entry): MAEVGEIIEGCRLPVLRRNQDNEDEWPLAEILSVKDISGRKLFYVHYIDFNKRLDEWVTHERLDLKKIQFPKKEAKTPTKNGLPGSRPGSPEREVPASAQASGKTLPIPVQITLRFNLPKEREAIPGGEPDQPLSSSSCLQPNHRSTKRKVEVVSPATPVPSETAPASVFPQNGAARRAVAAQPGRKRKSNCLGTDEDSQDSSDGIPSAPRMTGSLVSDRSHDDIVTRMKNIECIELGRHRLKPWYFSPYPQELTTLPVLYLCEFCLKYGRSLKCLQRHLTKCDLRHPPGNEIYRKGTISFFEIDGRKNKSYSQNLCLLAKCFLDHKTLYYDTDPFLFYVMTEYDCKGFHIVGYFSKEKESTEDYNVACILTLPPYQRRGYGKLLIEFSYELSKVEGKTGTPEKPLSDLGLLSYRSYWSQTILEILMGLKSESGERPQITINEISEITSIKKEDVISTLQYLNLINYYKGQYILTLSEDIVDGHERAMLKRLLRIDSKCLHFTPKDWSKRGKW

binding result: binds
B1: His-ATF3 (natural protein, UniProt P18847 1-181, looked up)
chain: MMLQHPGQVSASEVSASAIVPCLSPPGSLVFEDFANLTPFVKEELRFAIQNKHLCHRMSSALESVTVSDRPLGVSITKAEVAPEEDERKKRRRERNKIAAAKCRNKKKEKTECLQKESEKLESVNAELKAQIEELKNEKQHLIYMLNLHRPTCIVRAQNGRTPEDERNLFIQQIKEGTLQS
